Measured values from article PMC11310380 (Cell reports, 2024).

Biological target: the molecule itself
Assay: cross-linking

B1: P9-hTTN3 (human Tentonin 3/TMEM150C with the P9 sequence at its N terminus) (natural protein, UniProt B9EJG8 1-249, looked up)
chain: MDGKKCSVWMFLPLVFTLFTSAGLWIVYFIAVEDDKILPLNSAERKPGVKHAPYISIAGDDPPASCVFSQVMNMAAFLALVVAVLRFIQLKPKVLNPWLNISGLVALCLASFGMTLLGNFQLTNDEEIHNVGTSLTFGFGTLTCWIQAALTLKVNIKNEGRRVGIPRVILSASITLCVVLYFILMAQSIHMYAARVQWGLVMCFLSYFGTFAVEFRHYRYEIVCSEYQENFLSFSESLSEASEYQTDQV
  stoichiometry N: 4
